Experimental data taken from PMC6978808, “In Situ Structure of an Intact Lipopolysaccharide-Bound Bacterial Surface Layer” (Cell, 2020).
Several values for one entry are separate records, joined by “and”; a condition that tells them apart may be missing. Equal values may be shown once.

Legend:
[1] = molecular target: the molecule itself; assay: native MS; purified RsaANTD:PS complex with Ca2+; Q-Exactive UHMR; tandem MS (HCD 220 V) to assign the oligomers
[2] = molecular target: the molecule itself; assay: cryo-EM structure; single-particle cryo-EM of the purified RsaANTD:PS complex, 3.7 Å; PS and Ca2+ bound
[3] = molecular target: the molecule itself; assay: native MS; RsaANTD:PS sample after removal of Ca2+ on Zeba micro spin desalting columns

B1: N-terminal domain of RsaA (RsaANTD) (domain or fragment, Caulobacter crescentus)
chain: AYTTAQLVTAYTNANLGKAPDAATTLTLDAYATQTQTGGLSDAAALTNTLKLVNSTTAVAIQTYQFFTGVAPSAAGLDFLVDSTTNTNDLNDAYYSKFAQENRFINFSINLATGAGAGATAFAAAYTGVSYAQTVATAYDKIIGNAVATAAGVDVAAAVAFLSRQANIDYLTAFVRANTPFTAAADIDLAVKAALIGTILNAATVSGIGGYATATAAMINDLSDGALSTDNAAGVNLFTAYPSSGVSGSEN
notes: S-layer protein RsaA of Caulobacter crescentus (1026 residues), N-terminal domain; the introduction defines RsaANTD as residues 1-249; residues 2-243 are built in the cryo-EM model; Cleavage by TEV protease after Gln would leave Glu-Asn-Leu-Tyr-Phe-Gln; also called inner domain of the S-layer; source: C. crescentus rsaATEV250 strain
For B1, the “stoichiometry N” value [1] was 2, the “stoichiometry N” value [2] was 21 and 20 and the “stoichiometry N” value [3] was 4.
